According to patent publication US20230051715A1 (MABWELL THERAPEUTICS, published 2023):
Substitutions are numbered along the chain they refer to. Numbers in names are those of the source. One block for each binder: values may come before it.

Experiments:
[1] = target: T1, human C1s mutant M19 (Q303K) (human, UniProt P09871 16-688); test: ELISA, plate coated with human C1s mutant M19: Q303K, OD450nm
T1 construct: The entry is the mutant itself
T1 sequence: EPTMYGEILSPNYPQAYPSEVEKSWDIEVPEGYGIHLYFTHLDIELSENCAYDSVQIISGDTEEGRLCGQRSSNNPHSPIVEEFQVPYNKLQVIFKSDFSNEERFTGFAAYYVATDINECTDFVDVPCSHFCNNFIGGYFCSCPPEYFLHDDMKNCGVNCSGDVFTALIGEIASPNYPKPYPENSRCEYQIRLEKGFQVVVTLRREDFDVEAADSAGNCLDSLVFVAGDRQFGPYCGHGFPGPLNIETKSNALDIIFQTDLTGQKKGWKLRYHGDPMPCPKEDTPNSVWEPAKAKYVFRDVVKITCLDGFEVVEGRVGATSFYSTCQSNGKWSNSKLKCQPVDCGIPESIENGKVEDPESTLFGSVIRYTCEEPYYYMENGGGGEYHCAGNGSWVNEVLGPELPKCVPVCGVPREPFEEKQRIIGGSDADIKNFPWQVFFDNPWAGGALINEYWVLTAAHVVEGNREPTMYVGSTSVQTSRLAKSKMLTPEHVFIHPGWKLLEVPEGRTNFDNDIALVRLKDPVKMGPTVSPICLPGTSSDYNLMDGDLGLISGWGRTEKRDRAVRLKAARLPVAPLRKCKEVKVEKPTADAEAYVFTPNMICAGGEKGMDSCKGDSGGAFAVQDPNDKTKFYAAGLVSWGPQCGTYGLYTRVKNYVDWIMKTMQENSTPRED
Method: ELISA was carried out by first coating 96-well plates with 200 ng/well of full-length or truncated C1s proteins overnight. The next morning, plates were blocked with SuperBlock T20 blocking buffer (Thermo Scientific 37536) for 1 h with gentle shaking. Then, various concentrations of anti-C1s antibodies diluted in SuperBlock T20 blocking buffer were added to the plates and incubated for 1 h with gentle shaking. Mouse IgG (Sigma-Aldrich 15381) and human IgG1 (BioXCell BP0297) were used as negative controls. The plates were washed before incubating with HRP conjugated secondary antibodies diluted in SuperBlock T20 blocking buffer (goat anti-mouse IgG (H+L) cross-adsorbed secondary antibody HRP (Invitrogen G-21040) or goat anti-human IgG antibody, HRP conjugate (Millipore AP309P)) for 1 h with gentle shaking. At last, the plates were washed and color developed with ELISA liquid HRP substrate (Sigma-Aldrich), followed by stopping the reaction with addition of 1M H₂SO₄ in the same volume as the ELISA liquid substrate. Bound antibody was measured by absorbance at OD₄₅₀ₙₘ.
Binding of anti-C1s antibodies to mutants M1-M20 of human C1s was measured by ELISA as described in Example 4, and results are shown in FIGS. 6B-6U. All anti-C1s humanized variants including hz2-7(H1L2), hz2-8(H1L2 G80A) and hz2-8(H1L2 G80A/T82A) maintained strong binding properties to the majority (16 out of 20) of C1s mutants including M1 (FIG. 6B), M2 (FIG. 6C), M3 (FIG. 6D). M4 (FIG. 6E), M7 (FIG. 6H), M8 (FIG. 6I), M10 (FIG. 6K), M11 (FIG. 6L), M12 (FIG. 6M), M13 (FIG. 6N), M15 (FIG. 6P), M16 (FIG. 6Q), M17 (FIG. 6R), M18 (FIG. 6S), M19 (FIG. 6T) and M20 (FIG. 6U).

[2] = target: T2, full-length mouse C1s (produced in house) (mouse, UniProt Q8CG14 16-688); test: ELISA, plate coated with 200 ng/well MoC1s, OD450nm
T2 construct: Called full-length; also called MoC1s; moC1s
T2 sequence: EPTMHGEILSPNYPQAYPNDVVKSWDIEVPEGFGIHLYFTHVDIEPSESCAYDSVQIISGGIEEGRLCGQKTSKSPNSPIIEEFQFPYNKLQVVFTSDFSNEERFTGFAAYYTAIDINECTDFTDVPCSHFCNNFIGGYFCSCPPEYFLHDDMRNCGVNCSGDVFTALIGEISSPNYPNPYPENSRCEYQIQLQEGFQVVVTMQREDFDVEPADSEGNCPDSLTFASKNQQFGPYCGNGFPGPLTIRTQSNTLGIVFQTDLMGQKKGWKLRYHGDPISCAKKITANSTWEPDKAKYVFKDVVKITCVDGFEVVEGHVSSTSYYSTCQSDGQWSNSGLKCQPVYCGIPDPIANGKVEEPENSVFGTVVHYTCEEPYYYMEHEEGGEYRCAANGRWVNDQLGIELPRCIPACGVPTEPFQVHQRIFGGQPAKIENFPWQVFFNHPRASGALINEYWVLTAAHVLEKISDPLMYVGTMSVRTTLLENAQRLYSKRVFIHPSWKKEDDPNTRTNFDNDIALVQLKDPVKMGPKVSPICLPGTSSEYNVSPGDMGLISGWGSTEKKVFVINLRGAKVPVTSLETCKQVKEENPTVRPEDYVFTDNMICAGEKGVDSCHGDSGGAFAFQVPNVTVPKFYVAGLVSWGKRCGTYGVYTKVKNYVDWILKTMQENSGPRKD
Method: The next morning, plates were blocked with SuperBlock T20 blocking buffer (Thermo Scientific 37536) for 1 h with gentle shaking. Then, various concentrations of anti-C1s antibodies diluted in SuperBlock T20 blocking buffer were added to the plates and incubated for 1 h with gentle shaking. Mouse IgG (Sigma-Aldrich I5381) and Human IgG1 (BioXCell BP0297) were used as negative controls. The plates were washed before incubating with HRP conjugated secondary antibodies diluted in SuperBlock T20 blocking buffer (goat anti-mouse IgG (H+L) cross-adsorbed secondary antibody HRP (Invitrogen G-21040) or goat anti-human IgG antibody, HRP conjugate (Millipore AP309P)) for 1 h with gentle shaking. At last, the plates were washed and color developed with ELISA liquid substrate (Sigma-Aldrich), followed by stopping the reaction with addition of the same volume of […] 1M H₂SO₄. Bound antibody was measured by absorbance at OD₄₅₀ₙₘ.

binding result [2]: no binding (tested: 1000 ng/ml (Log 3))
B2: Anti-C1s antibody 2-8 (antibody, V domains shown)
VH: EVQLQQSGAELVRPGALVKLSCKASGFNIKEYYMHWVKQRPEQGLEWIGWIDPENGDTIYDPKFQGKASITADTSSNTAYLQLSSLTSEDTAVYYCARSRLFFAYWGQGTLVTVSA
VL: DIVMTQSHKFMSTSVGDRVSFTCKASQDVRTAVDWYQQKPGQSPKLLIYSASYRYTGVPDRFTGTGSGTDFTFTISSVQAEDLAVYFCQQQYTTPYTFGGGTKLEIKT
notes: the HC/LC entries may hold it too; also called clone 2-8

binding result [2]: no binding (tested: 1000 ng/ml (Log 3))
B3: Anti-C1s antibody 2-7 (antibody, human IgG1, kappa, V domains shown)
VH: EVKLEESGGGLVPPGGSMKLSCVASGFTFSNYFMNWVRQSPEKGLEWVAEIRLKFTNYATHYAESVEGRFTISRDDSKSSVYLQMNNLRAEDTGIYYCTRDYGSRNGYFDYWGQGTTLTVSS
VL: DIVMTQAAPSVPVTPGESVSISCRSSKSLLHSNGNTFLYWFLQRPGQSPQLLIYRMSNLASGVPDRFSGSGSGTAFTLRVSRVEAEDVGIYYCMQHLEYPYTFGGGTKLEIKT
notes: the HC/LC entries may hold it too; also called clone 2-7

EC50 [1]: 1 ng/mL | binding result [2]: no binding (tested: 1000 ng/ml (Log 3))
B5: Anti-C1s antibody hz2-8 (H1L2 G80A/T82A) (antibody, V domains shown)
VH: QVQLVQSGAEVKKPGASVKVSCKASGFNIKEYYMHWVRQAPEQGLEWMGWIDPENADAIYAQKFQGRVTITADTSTNTAYMELSSLRSEDTAVYYCARSRLFFAYWGQGTLVTVSS
VL: DIQMTQSPKSLSASVGDRVTITCRASQDVRTALDWYQQKPGQSPKLLIYSASYRYSGVPSRFSGSGSGTDFTLTISSLQPEDFATYYCQQQYTTPYTFGQGTKLEIKR
notes: Humanized variant with G80A and T82A in HC CDR2 (already in the entry), human IgG1 / kappa

The next lines start with the binder.

B1: Anti-C1s antibody hz2-7(H1L2) (antibody, V domains shown)
VH: EVQLLESGGGLVQPGGSLRLSCAASGFTFSNYFMNWVRQAPGKGLEWVSEIRLKFTNYATHYADSVKGRFTISRDDSKSTLYLQMNSLRAEDTAVYYCTRDYGSRNGYFDYWGQGTLVTVSS
VL: DIVMTQTPLSLPVTPGEPASISCRSSKSLLHSNGNTFLYWFLQKPGQSPQLLIYRMSNLASGVPDRFSGSGSGTDFTLKISRVEAEDVGVYYCMQHLEYPYTFGGGTKLEIKR
notes: Humanized, human IgG1 / kappa; also called hz2-7(1L2)
EC50 [1]: 2 ng/mL | binding result [2]: no binding (tested: 1000 ng/ml (Log 3))

B4: Anti-C1s antibody hz2-8 (H1L2 G80A) (antibody, V domains shown)
VH: B5 VH with A58T
VL: B5 VL
notes: Humanized variant with G80A in HC CDR2 (already in the entry), human IgG1 / kappa
EC50 [1]: 1 ng/mL
